Experimental data from the supplement of paper PMC5998384.

Legend:
HeLa Kyoto [1] = assay: solubility in G1/S (NP-40 vs SDS abundance) (log2 ratio); higher = more soluble; details: cell cycle stage: G1/S
HeLa Kyoto [2] = assay: melting temperature (median over replicates), in situ; higher = more thermally stable
HeLa Kyoto [3] = assay: solubility change mitosis vs G1/S (difference of NP-40 vs SDS log2 ratios) (log2 ratio difference); higher = more soluble in mitosis
HeLa Kyoto [4] = assay: thermal stability score vs G1/S (z-score of summed log2 fold changes over temperatures); higher = more thermally stable than in G1/S
[5] = cell cycle stage: early G1 (4.5 h after nocodazole release)
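For melting temperature (median over replicates), in situ in this document: HeLa Kyoto cells synchronized by double thymidine or nocodazole block, proteins quantified by TMT10plex mass spectrometry, three independent biological replicates.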
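For solubility change mitosis vs G1/S (difference of NP-40 vs SDS log2 ratios) in this document: synchronized HeLa Kyoto cells (double thymidine block for G1/S, nocodazole release for mitosis), protein amounts in NP-40 versus SDS lysates quantified by mass spectrometry, three biological replicates.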
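For solubility in G1/S (NP-40 vs SDS abundance) in this document: HeLa Kyoto cells arrested at G1/S by double thymidine block, proteins quantified by TMT10plex mass spectrometry in mild NP-40 versus SDS extracts, three biological replicates.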
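For thermal stability score vs G1/S (z-score of summed log2 fold changes over temperatures) in this document: synchronized HeLa Kyoto cells, proteins quantified by TMT10plex mass spectrometry, three biological replicates, mitosis taken 0.5 h after nocodazole release, G1/S directly after double thymidine block.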

Sequence of SORCS2 (chain, as listed by the source): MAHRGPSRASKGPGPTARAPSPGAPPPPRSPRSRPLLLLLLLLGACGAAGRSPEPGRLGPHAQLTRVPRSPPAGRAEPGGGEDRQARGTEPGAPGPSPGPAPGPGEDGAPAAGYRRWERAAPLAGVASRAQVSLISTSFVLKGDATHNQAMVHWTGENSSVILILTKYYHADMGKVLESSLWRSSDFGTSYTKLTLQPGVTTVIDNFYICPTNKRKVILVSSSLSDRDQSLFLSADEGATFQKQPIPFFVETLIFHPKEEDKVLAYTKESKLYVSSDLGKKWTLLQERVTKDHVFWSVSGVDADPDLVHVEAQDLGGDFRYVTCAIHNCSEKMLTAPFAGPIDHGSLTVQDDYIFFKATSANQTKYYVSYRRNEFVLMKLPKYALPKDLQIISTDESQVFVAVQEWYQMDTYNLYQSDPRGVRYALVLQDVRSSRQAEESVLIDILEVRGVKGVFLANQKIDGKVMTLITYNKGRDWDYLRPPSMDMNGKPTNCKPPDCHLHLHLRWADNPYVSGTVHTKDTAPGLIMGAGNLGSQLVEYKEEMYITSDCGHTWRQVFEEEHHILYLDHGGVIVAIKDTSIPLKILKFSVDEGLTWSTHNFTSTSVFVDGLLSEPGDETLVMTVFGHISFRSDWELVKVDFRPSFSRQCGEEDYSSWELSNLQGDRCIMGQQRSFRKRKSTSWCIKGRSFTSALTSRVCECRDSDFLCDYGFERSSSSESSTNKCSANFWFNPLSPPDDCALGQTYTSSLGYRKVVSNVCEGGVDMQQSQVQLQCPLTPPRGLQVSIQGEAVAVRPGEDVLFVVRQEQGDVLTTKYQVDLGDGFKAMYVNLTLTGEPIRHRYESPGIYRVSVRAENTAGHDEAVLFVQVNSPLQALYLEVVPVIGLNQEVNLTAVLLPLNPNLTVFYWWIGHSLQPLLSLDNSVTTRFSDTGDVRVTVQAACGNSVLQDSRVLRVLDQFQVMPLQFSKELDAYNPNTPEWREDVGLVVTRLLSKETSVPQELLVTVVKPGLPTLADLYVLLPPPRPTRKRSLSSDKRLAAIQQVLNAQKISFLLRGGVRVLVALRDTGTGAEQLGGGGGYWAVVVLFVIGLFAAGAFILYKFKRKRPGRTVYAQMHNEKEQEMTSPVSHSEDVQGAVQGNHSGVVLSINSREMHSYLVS
Sequence of COL12A1 (chain, as listed by the source): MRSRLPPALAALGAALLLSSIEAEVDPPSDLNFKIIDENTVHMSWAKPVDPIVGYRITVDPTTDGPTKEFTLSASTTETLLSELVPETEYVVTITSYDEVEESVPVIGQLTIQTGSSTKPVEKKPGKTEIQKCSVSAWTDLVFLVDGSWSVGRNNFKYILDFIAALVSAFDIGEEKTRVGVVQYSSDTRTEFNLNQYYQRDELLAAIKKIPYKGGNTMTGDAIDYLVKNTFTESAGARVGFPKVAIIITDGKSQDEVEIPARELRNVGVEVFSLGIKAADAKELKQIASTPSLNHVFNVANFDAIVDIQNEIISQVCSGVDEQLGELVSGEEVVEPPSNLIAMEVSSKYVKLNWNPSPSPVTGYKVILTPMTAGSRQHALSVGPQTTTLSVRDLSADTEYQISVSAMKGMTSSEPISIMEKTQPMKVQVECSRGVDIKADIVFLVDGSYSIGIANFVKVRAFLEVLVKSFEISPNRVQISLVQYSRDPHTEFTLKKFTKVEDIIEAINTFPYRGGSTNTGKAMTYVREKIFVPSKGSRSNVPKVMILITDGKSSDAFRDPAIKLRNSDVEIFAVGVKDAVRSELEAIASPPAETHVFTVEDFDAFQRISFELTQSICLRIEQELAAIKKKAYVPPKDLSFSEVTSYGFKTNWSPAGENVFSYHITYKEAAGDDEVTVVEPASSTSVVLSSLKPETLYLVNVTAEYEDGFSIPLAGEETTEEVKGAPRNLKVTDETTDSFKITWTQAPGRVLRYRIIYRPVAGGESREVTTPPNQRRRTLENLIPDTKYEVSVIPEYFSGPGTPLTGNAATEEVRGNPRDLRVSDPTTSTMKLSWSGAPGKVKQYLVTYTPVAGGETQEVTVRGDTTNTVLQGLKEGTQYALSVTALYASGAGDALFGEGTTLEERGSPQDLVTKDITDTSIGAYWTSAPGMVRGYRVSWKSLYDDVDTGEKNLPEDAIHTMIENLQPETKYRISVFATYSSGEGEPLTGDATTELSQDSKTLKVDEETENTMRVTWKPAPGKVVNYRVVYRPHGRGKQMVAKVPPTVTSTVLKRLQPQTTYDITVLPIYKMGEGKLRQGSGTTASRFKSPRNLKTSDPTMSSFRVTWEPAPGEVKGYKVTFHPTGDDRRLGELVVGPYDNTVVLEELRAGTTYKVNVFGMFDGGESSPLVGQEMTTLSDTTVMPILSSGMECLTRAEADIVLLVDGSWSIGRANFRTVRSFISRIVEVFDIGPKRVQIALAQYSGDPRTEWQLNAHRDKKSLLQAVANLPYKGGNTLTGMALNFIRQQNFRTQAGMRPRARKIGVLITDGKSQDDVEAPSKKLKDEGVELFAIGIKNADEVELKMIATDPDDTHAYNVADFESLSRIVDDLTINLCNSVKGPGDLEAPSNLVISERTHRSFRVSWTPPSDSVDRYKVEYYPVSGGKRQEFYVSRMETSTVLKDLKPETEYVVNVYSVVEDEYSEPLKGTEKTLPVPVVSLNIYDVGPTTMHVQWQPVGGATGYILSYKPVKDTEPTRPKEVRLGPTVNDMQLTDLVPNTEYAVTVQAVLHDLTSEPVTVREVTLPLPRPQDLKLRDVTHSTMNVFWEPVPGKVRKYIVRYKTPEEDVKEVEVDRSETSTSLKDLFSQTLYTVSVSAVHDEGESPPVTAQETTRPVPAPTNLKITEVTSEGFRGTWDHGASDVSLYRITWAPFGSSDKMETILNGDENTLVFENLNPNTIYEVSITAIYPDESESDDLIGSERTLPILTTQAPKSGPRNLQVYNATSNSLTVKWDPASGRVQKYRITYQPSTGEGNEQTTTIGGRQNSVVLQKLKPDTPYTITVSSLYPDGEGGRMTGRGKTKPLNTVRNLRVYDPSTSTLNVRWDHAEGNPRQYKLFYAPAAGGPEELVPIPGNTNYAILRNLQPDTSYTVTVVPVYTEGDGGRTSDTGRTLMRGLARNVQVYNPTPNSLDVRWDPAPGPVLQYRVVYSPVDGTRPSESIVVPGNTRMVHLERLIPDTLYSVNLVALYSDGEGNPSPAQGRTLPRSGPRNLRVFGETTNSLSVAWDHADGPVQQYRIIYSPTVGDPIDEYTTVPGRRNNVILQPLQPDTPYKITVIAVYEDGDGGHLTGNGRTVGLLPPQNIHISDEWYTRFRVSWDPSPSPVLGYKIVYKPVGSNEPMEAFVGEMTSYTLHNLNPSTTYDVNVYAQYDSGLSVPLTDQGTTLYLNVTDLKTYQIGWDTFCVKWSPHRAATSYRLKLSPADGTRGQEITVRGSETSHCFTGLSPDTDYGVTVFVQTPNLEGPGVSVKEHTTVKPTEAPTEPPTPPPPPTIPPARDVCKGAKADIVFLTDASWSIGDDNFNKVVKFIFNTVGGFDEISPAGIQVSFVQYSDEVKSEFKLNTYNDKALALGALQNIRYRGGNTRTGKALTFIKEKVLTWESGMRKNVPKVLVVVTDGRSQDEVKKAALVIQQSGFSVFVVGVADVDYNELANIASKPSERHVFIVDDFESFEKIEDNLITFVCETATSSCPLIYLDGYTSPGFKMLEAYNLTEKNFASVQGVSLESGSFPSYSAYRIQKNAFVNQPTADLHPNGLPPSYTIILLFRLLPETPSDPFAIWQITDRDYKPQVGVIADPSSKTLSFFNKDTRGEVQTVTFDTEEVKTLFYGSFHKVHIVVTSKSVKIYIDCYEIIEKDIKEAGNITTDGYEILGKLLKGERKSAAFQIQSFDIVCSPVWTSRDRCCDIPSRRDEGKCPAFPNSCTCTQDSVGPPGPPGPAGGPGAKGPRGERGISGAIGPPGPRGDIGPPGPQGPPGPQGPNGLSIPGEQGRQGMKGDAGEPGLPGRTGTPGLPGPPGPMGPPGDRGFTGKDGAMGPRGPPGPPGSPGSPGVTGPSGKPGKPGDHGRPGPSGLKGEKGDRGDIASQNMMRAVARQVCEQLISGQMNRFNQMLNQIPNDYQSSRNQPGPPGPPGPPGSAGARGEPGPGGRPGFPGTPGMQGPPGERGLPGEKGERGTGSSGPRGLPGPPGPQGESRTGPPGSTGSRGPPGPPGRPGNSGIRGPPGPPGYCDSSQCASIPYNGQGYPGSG

Substance | solubility in G1/S (log2) (HeLa Kyoto [1]) | melting temperature (HeLa Kyoto [2]; cell cycle stage: G1/S) [°C] | melting temperature (HeLa Kyoto [2]; cell cycle stage: mitosis) [°C] | solubility change mitosis (log2) (HeLa Kyoto [3]) | thermal stability score (HeLa Kyoto [4]; [5]) | thermal stability score (HeLa Kyoto [4]; cell cycle stage: mitosis)
COL12A1 | -0.1 | 53.8 | 54.9 | -0.124 | 4.88 | 5.9
MWLQQRLKGLPGLLSSSWARRLLCLLGLLLLLLWFGGSGARRAAGGLHLLPWSRGEPGAAEPSACLEAATRAWRGLRERGEVVPLGPGVPALVANGFLALDVAANRLWVTPGEREPAVAPDFVPFVQLRPLSALAEAGEAVLLLREGLLRRVRCLQLGSPGPGPVAAGPGPASVSGLAAGSGRDCVLLQEDFLAHRGRPHVYLQRIQLNNPTERVAALQTVGPTAGPAPKAFTSTLEKVGDHQFLLYSGRSPPTPTGLVHLVVVAAKKLVNRLQVAPKTQLDETVLWVVHVSGPINPQVLKSKAAKELKALQDLARKEMLELLDMPAAELLQDHQLLWAQLFSPGVEMKKITDTHTPSGLTVNLTLYYMLSCSPAPLLSPSLSHRERDQMESTLNYEDHCFSGHATMHAENLWPGRLSSVQQILQLSDLWRLTLQKRGCKGLVKVGAPGILQGMVLSFGGLQFTENHLQFQADPDVLHNSYALHGIRYKNDHINLAVLADAEGKPYLHVSVESRGQPVKIYACKAGCLDEPVELTSAPTGHTFSVMVTQPITPLLYISTDLTHLQDLRHTLHLKAILAHDEHMAQQDPGLPFLFWFSVASLITLFHLFLFKLIYNEYCGPGAKPLFRSKEDPSV [KIAA2013] | -0.156 | 56.9 | 56.1 | -0.126 | -3.23 | -4.42
SORCS2 | 0.0123 | 53.7 | 50.4 | -0.162 | -2.23 | -3.21
MIFPVARYALRWLRRPEDRAFSRAAMEMALRGVRKVLCVAEKNDAAKGIADLLSNGRMRRREGLSKFNKIYEFDYHLYGQNVTMVMTSVSGHLLAHDFQMQFRKWQSCNPLVLFEAEIEKYCPENFVDIKKTLERETRQCQALVIWTDCDREGENIGFEIIHVCKAVKPNLQVLRARFSEITPHAVRTACENLTEPDQRVSDAVDVRQELDLRIGAAFTRFQTLRLQRIFPEVLAEQLISYGSCQFPTLGFVVERFKAIQAFVPEIFHRIKVTHDHKDGIVEFNWKRHRLFNHTACLVLYQLCVEDPMATVVEVRSKPKSKWRPQALDTVELEKLASRKLRINAKETMRIAEKLYTQGYISYPRTETNIFPRDLNLTVLVEQQTPDPRWGAFAQSILERGGPTPRNGNKSDQAHPPIHPTKYTNNLQGDEQRLYEFIVRHFLACCSQDAQGQETTVEIDIAQERFVAHGLMILARNYLDVYPYDHWSDKILPVYEQGSHFQPSTVEMVDGETSPPKLLTEADLIALMEKHGIGTDATHAEHIETIKARMYVGLTPDKRFLPGHLGMGLVEGYDSMGYEMSKPDLRAELEADLKLICDGKKDKFVVLRQQVQKYKQVFIEAVAKAKKLDEALAQYFGNGTELAQQEDIYPAMPEPIRKCPQCNKDMVLKTKKNGGFYLSCMGFPECRSAVWLPDSVLEASRDSSVCPVCQPHPVYRLKLKFKRGSLPPTMPLEFVCCIGGCDDTLREILDLRFSGGPPRASQPSGRLQANQSLNRMDNSQHPQPADSRQTGSSKALAQTLPPPTAAGESNSVTCNCGQEAVLLTVRKEGPNRGRQFFKCNGGSCNFFLWADSPNPGAGGPPALAYRPLGASLGCPPGPGIHLGGFGNPGDGSGSGTSCLCSQPSVTRTVQKDGPNKGRQFHTCAKPREQQCGFFQWVDENTAPGTSGAPSWTGDRGRTLESEARSKRPRASSSDMGSTAKKPRKCSLCHQPGHTRPFCPQNR [TOP3A] | -0.336 | 46.9 | 48.4 | 0.0865 | 1.18 | 1.85
MARSPGRAYALLLLLICFNVGSGLHLQVLSTRNENKLLPKHPHLVRQKRAWITAPVALREGEDLSKKNPIAKIHSDLAEERGLKITYKYTGKGITEPPFGIFVFNKDTGELNVTSILDREETPFFLLTGYALDARGNNVEKPLELRIKVLDINDNEPVFTQDVFVGSVEELSAAHTLVMKINATDADEPNTLNSKISYRIVSLEPAYPPVFYLNKDTGEIYTTSVTLDREEHSSYTLTVEARDGNGEVTDKPVKQAQVQIRILDVNDNIPVVENKVLEGMVEENQVNVEVTRIKVFDADEIGSDNWLANFTFASGNEGGYFHIETDAQTNEGIVTLIKEVDYEEMKNLDFSVIVANKAAFHKSIRSKYKPTPIPIKVKVKNVKEGIHFKSSVISIYVSESMDRSSKGQIIGNFQAFDEDTGLPAHARYVKLEDRDNWISVDSVTSEIKLAKLPDFESRYVQNGTYTVKIVAISEDYPRKTITGTVLINVEDINDNCPTLIEPVQTICHDAEYVNVTAEDLDGHPNSGPFSFSVIDKPPGMAEKWKIARQESTSVLLQQSEKKLGRSEIQFLISDNQGFSCPEKQVLTLTVCECLHGSGCREAQHDSYVGLGPAAIALMILAFLLLLLVPLLLLMCHCGKGAKGFTPIPGTIEMLHPWNNEGAPPEDKVVPSFLPVDQGGSLVGRNGVGGMAKEATMKGSSSASIVKGQHEMSEMDGRWEEHRSLLSGRATQFTGATGAIMTTETTKTARATGASRDMAGAQAAAVALNEEFLRNYFTDKAASYTEEDENHTAKDCLLVYSQEETESLNASIGCCSFIEGELDDRFLDDLGLKFKTLAEVCLGQKIDINKEIEQRQKPATETSMNTASHSLCEQTMVNSENTYSSGSSFPVPKSLQEANAEKVTQEIVTERSVSSRQAQKVATPLPDPMASRNVIATETSYVTGSTMPPTTVILGPSQPQSLIVTERVYAPASTLVDQPYANEGTVVVTERVIQPHGGGSNPLEGTQHLQDVPYVMVRERESFLAPSSGVQPTLAMPNIAVGQNVTVTERVLAPASTLQSSYQIPTENSMTARNTTVSGAGVPGPLPDFGLEESGHSNSTITTSSTRVTKHSTVQHSYS [DSG2] | -0.504 | 55.1 | 56 | -0.164 | -1.15 | -1.27
MWKLLPAAGPAGGEPYRLLTGVEYVVGRKNCAILIENDQSISRNHAVLTANFSVTNLSQTDEIPVLTLKDNSKYGTFVNEEKMQNGFSRTLKSGDGITFGVFGSKFRIEYEPLVACSSCLDVSGKTALNQAILQLGGFTVNNWTEECTHLVMVSVKVTIKTICALICGRPIVKPEYFTEFLKAVESKKQPPQIESFYPPLDEPSIGSKNVDLSGRQERKQIFKGKTFIFLNAKQHKKLSSAVVFGGGEARLITEENEEEHNFFLAPGTCVVDTGITNSQTLIPDCQKKWIQSIMDMLQRQGLRPIPEAEIGLAVIFMTTKNYCDPQGHPSTGLKTTTPGPSLSQGVSVDEKLMPSAPVNTTTYVADTESEQADTWDLSERPKEIKVSKMEQKFRMLSQDAPTVKESCKTSSNNNSMVSNTLAKMRIPNYQLSPTKLPSINKSKDRASQQQQTNSIRNYFQPSTKKRERDEENQEMSSCKSARIETSCSLLEQTQPATPSLWKNKEQHLSENEPVDTNSDNNLFTDTDLKSIVKNSASKSHAAEKLRSNKKREMDDVAIEDEVLEQLFKDTKPELEIDVKVQKQEEDVNVRKRPRMDIETNDTFSDEAVPESSKISQENEIGKKRELKEDSLWSAKEISNNDKLQDDSEMLPKKLLLTEFRSLVIKNSTSRNPSGINDDYGQLKNFKKFKKVTYPGAGKLPHIIGGSDLIAHHARKNTELEEWLRQEMEVQNQHAKEESLADDLFRYNPYLKRRR [NBN] | -0.0211 | 48.7 | 49.7 | -0.152 | 0.727 | 1.8
MAATAAEAVASGSGEPREEAGALGPAWDESQLRSYSFPTRPIPRLSQSDPRAEELIENEEPVVLTDTNLVYPALKWDLEYLQENIGNGDFSVYSASTHKFLYYDEKKMANFQNFKPRSNREEMKFHEFVEKLQDIQQRGGEERLYLQQTLNDTVGRKIVMDFLGFNWNWINKQQGKRGWGQLTSNLLLIGMEGNVTPAHYDEQQNFFAQIKGYKRCILFPPDQFECLYPYPVHHPCDRQSQVDFDNPDYERFPNFQNVVGYETVVGPGDVLYIPMYWWHHIESLLNGGITITVNFWYKGAPTPKRIEYPLKAHQKVAIMRNIEKMLGEALGNPQEVGPLLNTMIKGRYN [HIF1AN] | 0.273 | 52.3 | 51.7 | -0.0585 | 0.637 | 1.68
MAESIIIRVQSPDGVKRITATKRETAATFLKKVAKEFGFQNNGFSVYINRNKTGEITASSNKSLNLLKIKHGDLLFLFPSSLAGPSSEMETSVPPGFKVFGAPNVVEDEIDQYLSKQDGKIYRSRDPQLCRHGPLGKCVHCVPLEPFDEDYLNHLEPPVKHMSFHAYIRKLTGGADKGKFVALENISCKIKSGCEGHLPWPNGICTKCQPSAITLNRQKYRHVDNIMFENHTVADRFLDFWRKTGNQHFGYLYGRYTEHKDIPLGIRAEVAAIYEPPQIGTQNSLELLEDPKAEVVDEIAAKLGLRKVGWIFTDLVSEDTRKGTVRYSRNKDTYFLSSEECITAGDFQNKHPNMCRLSPDGHFGSKFVTAVATGGPDNQVHFEGYQVSNQCMALVRDECLLPCKDAPELGYAKESSSEQYVPDVFYKDVDKFGNEITQLARPLPVEYLIIDITTTFPKDPVYTFSISQNPFPIENRDVLGETQDFHSLATYLSQNTSSVFLDTISDFHLLLFLVTNEVMPLQDSISLLLEAVRTRNEELAQTWKRSEQWATIEQLCSTVGGQLPGLHEYGAVGGSTHTATAAMWACQHCTFMNQPGTGHCEMCSLPRT [NPLOC4] | -0.00908 | 51.8 | 52 | -0.119 | 0.478 | -0.273
MDN1 | -0.665 | 51.1 | 50.5 | 0.182 | 0.349 | 1.35
SPEN | -0.619 | 49 | 50.4 | 0.433 | 1.63 | 4.49
MGAVWSALLVGGGLAGALFVWLLRGGPGDTGKDGDAEQEKDAPLGGAAIPGGHQSGSSGLSPGPSGQELVTKPEHLQESNGHLISKTKDLGKLQAASWRLQNPSREVCDNSREHVPSGQFPDTEAPATSETSNSRSYSEVSRNESLESPMGEWGFQKGQEISAKAATCFAEKLPSSNLLKNRAKEEMSLSDLNSQDRVDHEEWEMVPRHSSWGDVGVGGSLKAPVLNLNQGMDNGRSTLVEARGQQVHGKMERVAVMPAGSQQVSVRFQVHYVTSTDVQFIAVTGDHECLGRWNTYIPLHYNKDGFWSHSIFLPADTVVEWKFVLVENGGVTRWEECSNRFLETGHEDKVVHAWWGIH [STBD1] | -0.336 | 50.7 | 50.3 | -0.0441 | 0.314 | -0.125
MSASSLLEQRPKGQGNKVQNGSVHQKDGLNDDDFEPYLSPQARPNNAYTAMSDSYLPSYYSPSIGFSYSLGEAAWSTGGDTAMPYLTSYGQLSNGEPHFLPDAMFGQPGALGSTPFLGQHGFNFFPSGIDFSAWGNNSSQGQSTQSSGYSSNYAYAPSSLGGAMIDGQSAFANETLNKAPGMNTIDQGMAALKLGSTEVASNVPKVVGSAVGSGSITSNIVASNSLPPATIAPPKPASWADIASKPAKQQPKLKTKNGIAGSSLPPPPIKHNMDIGTWDNKGPVAKAPSQALVQNIGQPTQGSPQPVGQQANNSPPVAQASVGQQTQPLPPPPPQPAQLSVQQQAAQPTRWVAPRNRGSGFGHNGVDGNGVGQSQAGSGSTPSEPHPVLEKLRSINNYNPKDFDWNLKHGRVFIIKSYSEDDIHRSIKYNIWCSTEHGNKRLDAAYRSMNGKGPVYLLFSVNGSGHFCGVAEMKSAVDYNTCAGVWSQDKWKGRFDVRWIFVKDVPNSQLRHIRLENNENKPVTNSRDTQEVPLEKAKQVLKIIASYKHTTSIFDDFSHYEKRQEEEESVKKERQGRGK [YTHDF2] | 0.00424 | 51 | 50.7 | 0.0349 | -0.975 | -1.92
MAFRQALQLAACGLAGGSAAVLFSAVAVGKPRAGGDAEPRPAEPPAWAGGARPGPGVWDPNWDRREPLSLINVRKRNVESGEEELASKLDHYKAKATRHIFLIRHSQYHVDGSLEKDRTLTPLGREQAELTGLRLASLGLKFNKIVHSSMTRAIETTDIISRHLPGVCKVSTDLLREGAPIEPDPPVSHWKPEAVQYYEDGARIEAAFRNYIHRADARQEEDSYEIFICHANVIRYIVCRALQFPPEGWLRLSLNNGSITHLVIRPNGRVALRTLGDTGFMPPDKITRS [PGAM5] | -0.0731 | 52.8 | 52.2 | 0.121 | 1.94 | -3.72
DNAJA1 | -0.016 | 51.8 | 52.1 | 0.000386 | -1.37 | -1.92
